Measurements published in patent US20160024213A1 (VIB VZW, published 2016).

T1: Recombinant mouse MMR (R&D Systems) (mouse, UniProt Q61830 20-1388)
T1 construct: Bought from R&D Systems; Immobilised on CM5 chip (SPR) or coated on plates (ELISA); also called mMMR; recombinant mMMR
T1 sequence: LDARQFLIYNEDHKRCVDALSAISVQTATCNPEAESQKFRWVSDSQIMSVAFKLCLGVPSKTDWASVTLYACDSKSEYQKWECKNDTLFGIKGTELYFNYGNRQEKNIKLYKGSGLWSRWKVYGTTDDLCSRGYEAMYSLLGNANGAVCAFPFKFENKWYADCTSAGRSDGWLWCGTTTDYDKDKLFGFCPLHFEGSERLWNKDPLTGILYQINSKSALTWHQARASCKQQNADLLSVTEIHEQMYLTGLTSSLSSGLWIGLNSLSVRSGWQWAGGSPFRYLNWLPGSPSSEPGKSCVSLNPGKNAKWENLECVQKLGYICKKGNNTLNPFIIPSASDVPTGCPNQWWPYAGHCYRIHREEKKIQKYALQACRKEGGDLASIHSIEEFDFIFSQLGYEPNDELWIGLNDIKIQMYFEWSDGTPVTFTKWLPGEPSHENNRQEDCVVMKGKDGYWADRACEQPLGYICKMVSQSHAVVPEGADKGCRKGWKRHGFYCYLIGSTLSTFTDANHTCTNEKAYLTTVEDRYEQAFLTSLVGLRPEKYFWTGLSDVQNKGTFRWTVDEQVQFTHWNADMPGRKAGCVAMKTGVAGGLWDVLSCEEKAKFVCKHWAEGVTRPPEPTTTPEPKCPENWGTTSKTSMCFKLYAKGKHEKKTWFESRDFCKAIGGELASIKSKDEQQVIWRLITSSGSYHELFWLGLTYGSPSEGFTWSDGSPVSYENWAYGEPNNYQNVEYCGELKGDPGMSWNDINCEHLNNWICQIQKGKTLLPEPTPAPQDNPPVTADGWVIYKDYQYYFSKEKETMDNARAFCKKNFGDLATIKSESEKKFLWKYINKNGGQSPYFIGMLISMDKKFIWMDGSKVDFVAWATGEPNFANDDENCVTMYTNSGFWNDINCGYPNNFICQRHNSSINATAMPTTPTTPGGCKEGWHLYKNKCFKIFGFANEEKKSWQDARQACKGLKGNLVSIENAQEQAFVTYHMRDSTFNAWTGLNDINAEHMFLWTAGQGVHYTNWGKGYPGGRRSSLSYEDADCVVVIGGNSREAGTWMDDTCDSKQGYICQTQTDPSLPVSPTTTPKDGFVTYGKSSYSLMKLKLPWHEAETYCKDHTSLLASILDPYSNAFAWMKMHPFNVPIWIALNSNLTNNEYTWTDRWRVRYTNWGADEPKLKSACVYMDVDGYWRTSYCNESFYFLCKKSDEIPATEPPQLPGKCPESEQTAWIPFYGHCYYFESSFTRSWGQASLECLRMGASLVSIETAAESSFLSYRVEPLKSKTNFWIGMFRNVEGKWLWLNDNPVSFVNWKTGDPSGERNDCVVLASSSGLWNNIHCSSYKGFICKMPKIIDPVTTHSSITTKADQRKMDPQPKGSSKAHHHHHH

T2: Recombinant human MMR (R&D Systems) (human, UniProt P22897 19-1383)
T2 construct: Bought from R&D Systems; also called hMMR; recombinant hMMR
T2 sequence: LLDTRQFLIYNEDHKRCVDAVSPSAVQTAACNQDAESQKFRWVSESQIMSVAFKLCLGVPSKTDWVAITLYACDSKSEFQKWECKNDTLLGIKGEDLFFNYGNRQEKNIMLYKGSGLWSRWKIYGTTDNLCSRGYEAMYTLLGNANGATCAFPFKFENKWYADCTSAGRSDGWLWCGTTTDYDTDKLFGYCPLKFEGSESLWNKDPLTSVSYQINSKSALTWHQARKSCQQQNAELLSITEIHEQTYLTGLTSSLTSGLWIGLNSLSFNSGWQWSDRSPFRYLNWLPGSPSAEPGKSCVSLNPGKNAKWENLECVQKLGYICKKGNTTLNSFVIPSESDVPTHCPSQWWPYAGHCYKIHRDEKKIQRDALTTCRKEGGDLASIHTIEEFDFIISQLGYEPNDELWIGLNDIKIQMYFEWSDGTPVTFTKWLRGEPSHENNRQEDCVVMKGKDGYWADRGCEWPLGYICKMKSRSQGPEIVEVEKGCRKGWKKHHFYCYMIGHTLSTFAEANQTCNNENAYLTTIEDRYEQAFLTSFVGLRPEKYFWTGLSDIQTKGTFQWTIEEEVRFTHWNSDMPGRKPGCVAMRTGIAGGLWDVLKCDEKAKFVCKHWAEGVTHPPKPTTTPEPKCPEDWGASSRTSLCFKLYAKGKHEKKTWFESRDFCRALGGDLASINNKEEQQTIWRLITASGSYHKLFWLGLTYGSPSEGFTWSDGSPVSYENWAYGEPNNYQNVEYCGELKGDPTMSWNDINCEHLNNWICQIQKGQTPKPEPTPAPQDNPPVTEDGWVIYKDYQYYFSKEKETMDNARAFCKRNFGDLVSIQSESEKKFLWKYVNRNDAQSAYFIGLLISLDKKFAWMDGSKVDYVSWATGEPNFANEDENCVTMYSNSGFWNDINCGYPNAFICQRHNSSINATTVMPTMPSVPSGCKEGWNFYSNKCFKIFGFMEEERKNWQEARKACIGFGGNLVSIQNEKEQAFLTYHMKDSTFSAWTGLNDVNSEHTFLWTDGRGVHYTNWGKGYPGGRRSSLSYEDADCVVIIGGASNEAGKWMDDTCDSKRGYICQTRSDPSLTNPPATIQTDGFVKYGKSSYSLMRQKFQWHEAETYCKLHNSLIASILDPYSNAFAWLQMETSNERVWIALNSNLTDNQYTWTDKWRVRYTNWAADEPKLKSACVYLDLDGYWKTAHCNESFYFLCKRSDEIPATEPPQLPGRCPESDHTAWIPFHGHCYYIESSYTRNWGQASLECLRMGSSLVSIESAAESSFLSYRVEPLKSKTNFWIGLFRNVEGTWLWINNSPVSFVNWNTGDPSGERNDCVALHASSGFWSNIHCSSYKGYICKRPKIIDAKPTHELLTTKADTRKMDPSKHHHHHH

B1: Anti-MMR Nanobody clone 1 (VHH)
VHH: QVQLQESGGGLVQPGGSLRLSCAASGNIFSINAIGWYRQAPGKQRELVATITLSGSTNYADSVKGRFSISRDNAKNTVYLQMNSLKPEDTAVYYCNANTYSDSDVYGYWGQGTQVTVSS
notes: 99mTc-labelled at the His tail in the in vivo experiments; also called Anti-MMR Nb1; Nb MMR cl1
B2: Bivalent anti-MMR Nanobody 1 with human IgA hinge linker (VHH)
chain: QVQLQESGGGLVQPGGSLRLSCAASGNIFSINAIGWYRQAPGKQRELVATITLSGSTNYADSVKGRFSISRDNAKNTVYLQMNSLKPEDTAVYYCNANTYSDSDVYGYWGQGTQVTVSSSPSTPPTPSPSTPPASQVQLQESGGGLVQPGGSLRLSCAASGNIFSINAIGWYRQAPGKQRELVATITLSGSTNYADSVKGRFSISRDNAKNTVYLQMNSLKPEDTAVYYCNANTYSDSDVYGYWGQGTQVTVSSHHHHHH
notes: Bivalent tandem of two clone 1 VHH domains in one chain; also called biv MMR linker 3 IgA; MMR biv IgA
B3: Anti-MMR Nanobody clone 3 (VHH)
VHH: QVQLQESGGGLVQAGGSLRLSCAASGRTFSRDAMGWFRQAPGKEREFVAGISWSGGSTYYADSVKGRFTISRDGAKNTVNLQMNSLKPEDTAVYYCAASSIYGSAVVDGLYDYWGQGTQVTVSS
notes: Monovalent, His-tagged; also called Anti-MMR Nb3; Nb clone 3
B4: Bivalent anti-MMR Nanobody 1 with llama IgG2 hinge linker (VHH)
chain: QVQLQESGGGLVQPGGSLRLSCAASGNIFSINAIGWYRQAPGKQRELVATITLSGSTNYADSVKGRFSISRDNAKNTVYLQMNSLKPEDTAVYYCNANTYSDSDVYGYWGQGTQVTVSSAHHSEDPSSKAPKAPMAQVQLQESGGGLVQPGGSLRLSCAASGNIFSINAIGWYRQAPGKQRELVATITLSGSTNYADSVKGRFSISRDNAKNTVYLQMNSLKPEDTAVYYCNANTYSDSDVYGYWGQGTQVTVSSHHHHHH
notes: Bivalent tandem of two clone 1 VHH domains in one chain; also called biv MMR linker 2 g2c; MMR biv g2c
B5: Bivalent anti-MMR Nanobody 1 with (Gly4Ser)3 linker (VHH)
chain: QVQLQESGGGLVQPGGSLRLSCAASGNIFSINAIGWYRQAPGKQRELVATITLSGSTNYADSVKGRFSISRDNAKNTVYLQMNSLKPEDTAVYYCNANTYSDSDVYGYWGQGTQVTVSSGGGGSGGGGSGGGGSQVQLQESGGGLVQPGGSLRLSCAASGNIFSINAIGWYRQAPGKQRELVATITLSGSTNYADSVKGRFSISRDNAKNTVYLQMNSLKPEDTAVYYCNANTYSDSDVYGYWGQGTQVTVSSHHHHHH
notes: Bivalent tandem of two clone 1 VHH domains in one chain; also called biv MMR linker 1 GS; MMR biv (Gly4Ser)3

molecular target: T1, Recombinant mouse MMR (R&D Systems); assay: SPR, BIAcore T100, MMR on CM5 chip, Nanobody as analyte
Method: (§1) Affinity analysis was performed using a BIAcore T100 (GE Healthcare) with HEPES-buffered saline running buffer (10 mM HEPES with 0.15 M NaCl, 3.4 mM EDTA and 0.005% surfactant P20 at pH 7.4). MRR was immobilized on a CM5 chip in acetate buffer 50 mM (pH 5.0), resulting in 2100 RU MMR coated on the chip. A second channel on the same chip was activated/deactivated in a similar way and served as a negative control. The MMR Nanobodies were used as analytes in 11 different concentrations, ranging from 1 to 2000 nM, at a flow rate of […]. Glycine-HCl 50 mM (pH 2.0) was used for elution. The kinetic and equilibrium parameters (kd, ka and KD) values were calculated from the combined sensogram of all concentrations using BIAcore T100 evaluation software 2.02 (GE Healthcare).
Anti-CD206 (anti-MMR) Nanobodies (Nbs), which are the smallest available antigen-binding entities, were created in order to target MMR-positive cells in vivo. Nanobodies were raised against the recombinant extracellular portion of MMR, as described in the Materials and Methods (see also Table 1). The binding characteristics of the monovalent anti-MMR Nanobodies were compared using surface Plasmon resonance (SPR) measurements (Table 2).

koff [s⁻¹]	kon [M⁻¹ s⁻¹]	Binder
0.0133	576000	B1
0.00428	913000	B2
0.0186	97300	B3
0.00411	1.02e+06	B4
0.0044	1.04e+06	B5

molecular target: T1, Recombinant mouse MMR (R&D Systems); assay: SPR, BIAcore T100, mouse MMR on CM5 chip
Method: as §1
(§2) The binding characteristics and affinity of selected Nbs towards the recombinant hMMR and recombinant mMMR antigen was examined in further detail using surface plasmon resonance. A combined sensogram was recorded for each Nb (example for NbhmMMRm3.49 in FIG. 7) and the kinetic and equilibrium parameters (kd, ka and KD) values were calculated (Table 8 and Table 9). Most but not all results on binding to mouse or human rMMR obtained via this SPR analysis are in agreement with the results obtained by PE-ELISA.

koff [s⁻¹]	kon [M⁻¹ s⁻¹]	Binder
0.0133	576000	B1
0.0186	97300	B3

molecular target: T1, Recombinant mouse MMR (R&D Systems); assay: SPR, immobilised recombinant MMR
Method: as §1
Bivalent Nanobodies were constructed by linking two anti-MMR Nanobody 1 entities using (G₄S)₃ ([…]; SEQ ID NO:151), llama IgG2 hinge ([…]; SEQ ID NO:152) or human IgA hinge ([…] SEQ ID NO:153) linkers. […] As a negative control Nanobody in all experiments, we consistently used α-BCII10 Nb, which is a binder of the β-lactamase BCII enzyme of Bacillus cereus.

fold increase in KD (so in the source) compared to the monovalent clone 1 Nanobody [fold]	Binder
3	B2
3	B4
3	B5

molecular target: T2, Recombinant human MMR (R&D Systems); assay: SPR, BIAcore T100, human MMR on CM5 chip
Method: as §1, §2

Binder	binding result
B1	no binding (tested: analyte 1 to 2000 nM)
B3	no binding (tested: analyte 1 to 2000 nM)
